From the DeepSol protein solubility set come the findings set out here.

A short description of this data set: soluble on expression in E. coli; label from the status in PepcDB or PDB records.
Regarding “MGSDKIHHHHHHMYAAHPIKPLKAPKLKTQFLRRVFVGASIRRWNDQACPLEFVELDKQAHKAMIAYLLAKDLKDRGNDLDLDLLIKFFCFEFLERLVLTDIKPPIFYALQQTHSQELASYVVQSLQDEISMYFSLEELKEYLSHRPQILETQILESAHFYASKWEFDIIYHFNPNMYGVKEIKDKIDKQLHNNEHLFEGLFGEKEDLKKLVSMFGQLRFQKRWSQTPRVPQTSVLGHTLCVALMGYLLSFDLKACKSMRINHFLGGLFHDLPEILTRDIITPIKQSVAGLDHCIKEIEKKEMQNKVYSFVSLGVQEDLKYFTENEFKNRYKDKSNKIIFTKDAEELFTLYNSDEYLGVCGELLKVCDHLSAFLEAQISLSHGISSNDLIKGAQNLLELRSQTELLDLDLGKLFRDFK”, the “soluble on expression in E. coli” value is reported as “not soluble”.
Regarding “GMSETITFPPLMTGEAAGPGQDPFDLACQKAELGVDAGLVVYELGTDVLRAALVLAPEVPLAKAMAMLPVCGVGFQNALGALAPPEVAVHLDWNGALRINGARCGRLRIAASTDDPDTQPDWLVVGLDLPLWPEGDGGETPDETALYAEGCADVAAPRLLESWARHCLHWINRWDEGELETIHGEWRGLAHGMGEARTEAGRSGTFLGVDEDFGMLLRDETTTHLIPLTTVLVQD”, the “soluble on expression in E. coli” value is listed as “soluble”.
With “MGSDKIHHHHHHMVYPVKDIQSVRDLALLAIRNKVSLEQQVETLGFESETYDYSSLLADLKVLPPLDHPDPTHCLISGTGLTHLGSASARDKMHQQNLSNDSSVTDTMRIFQWGLQKGRPAEGQIGAQPEWFYKGDGSIVVRPGAELPLPPFAEDGGEEPEIAGLYVIGEDLKPYRIGFALGNEYSDHVMERRNYLYLAHSKLRFCSFGPALRTGELPKHLVGTSRLRRDGQIIWEKEFLSGEDNMCHSLANLEYHHFKYQQFLKAGDVHIHYFGTATLSFADGIQAQVNDEFEIEMKEFGHPLKNKLAHMQPELPIGSVITL”, the “soluble on expression in E. coli” value is “not soluble”.
For “MKMLEQLEKKLGYTFKDKSLLEKALTHVSYSKKEHYETLEFLGDALVNFFIVDLLVQYSPNKREGFLSPLKAYLISEEFFNLLAQKLELHKFIRIKRGKINETIIGDVFEALWAAVYIDSGRDANFTRELFYKLFKEDILSAIKEGRVKKDYKTILQEITQKRWKERPEYRLISVEGPHHKKKFIVEAKIKEYRTLGEGKSKKEAEQRAAEELIKLLEESE” the value was “soluble”; for “MSKYAGIVLAGGMSSRFGEPKALAIWKETTFVEHIVKVMGNTLQDIVVISHTDIKERVEQFVQVPVIEDIPHYKGNGPLAGIVSGMEYIEADWYAIMPCDAPNVSHEWFTILLEQTNNEYDAVVPIINGRKQPLLAAYHNRVKEKIYALLQEEKRSMGQLLSQCNVKYVSGEDVQANADWFINVNTKEEYVQAQKDLSNE”, “soluble”; for “MGSDKIHHHHHHMAPMKIGLILEGTYPYVTGGVSNWVHTLLTNLPEFEFEIYHLKAVTEPQTIKYKIPENVTAVHELNIFGDFESDSSQKANLESLERIVSQLSIERDIRSIVSFAIDFIRENAGKNVRKMLKTKGFWNILLKIYEEFFSERGLTEFYWMIMNLFLPVVNVLQFVPNRCDLFHVPSTGYASLVGMNGKFVHDVPLVITEHGIYHKEREREIILSTWVPDAYKPMWIELFRIISMIAYRVSDALTTLYRKNQIYQLELGADPEKMFIIPNGINVEEYDLPPEKHEGFVVGFVGRVARIKDLKTAIRAISIVKEVVGEKLTFLIIGPVDAEDYLAECKRLVRVLRLEDTVEFLGPQNVKEYYPKFDLLLLSSVSEGQPLVILEAMAAGVPIVATDVGACRDIIYDKDGQCGIVVPPKDHLSMSKAIIKLYEDKELRDTFSKNAKKVVQKYRVETMIEKYRNLYLSLTSKKTVSTV”, “not soluble”.
Regarding “KLSSSEKNAILNAVSWYDADAEKVVKGTTKLAGDKLKELLAYLGCKEKELGDYGYFATEKKGEYLEYETESNLRDTENVPLKEAIYTYFLREVKPHVGEAWINLDATKIGYEISFNKYFYKHKPLRSIEDVTADILALEKESDGLIAEILGL”, the “soluble on expression in E. coli” value is on record as “not soluble”.
For “MSVKISGKDYAGMYGPTKGDRVRLADTDLIIEIEEDYTVYGDECKFGGGKSIRDGMGQSPSAARDDKVLDLVITNAIIFDTWGIVKGDIGIKDGKIAGIGKAGNPKVMSGVSEDLIIGASTEVITGEGLIVTPGGIDTHIHFICPQQIETALFSGITTMIGGGTGPADGTNATTCTPGAFNIRKMLEAAEDFPVNLGFLGKGNASFETPLIEQIEAGAIGLKLHEDWGTTPKAIDTCLKVADLFDVQVAIHTDTLNEAGFVENTIAAIAGRTIHTYHTEGAGGGHAPDIIKIASRMNVLPSSTNPTMPFTVNTLDEHLDMLMVCHHLDSKVKEDVAFADSRIRPETIAAEDILHDMGVFSMMSSDSQAMGRVGEVIIRTWQTAHKMKLQRGALPGEKSGCDNIRAKRYLAKYTINPAITHGISQYVGSLEKGKIADLVLWKPAMFGVKPEMIIKGGFIIAGRMGDANASIPTPQPVIYKNMFGAFGKAKYGTCVTFVSKASLENGVVEKMGLQRKVLPVQGCRNISKKYMVHNNATPEIEVDPETYEVKVDGEIITCEPLKVLPMAQRYFLF” the value was “not soluble”.
For “VGKTVKREYCHEENDEELRKAVHDACYDKSYAIAASGNRNKHERQDAFDAIRDEFKAQFSEEELEEKGALIDRYYHDVEKEAMRRCILDEGKRLDGRKTTEIRP” the value was “not soluble”; for “DIGCYTLGGFEPLNAIDTTICMGASIGMAHGFEMARGKEFAKKSVAVIGDSTFWHSGVTGLIDIVYNKGHSTVIILDNSITAMTGHQENPSTGKTLSGERTNQIDFEALGRSIGINRICVVDAYDLKALEETIKEEVNAEEPSLIITKRPCVLIKGAKFDFKDYKIDP”, “not soluble”.
For “MGSDKIHHHHHHMIDSHAHLISADVERYPTSPLSGELEPGALDNPVTAERLLALMDEQGIERALAVQRAHIYGFNNAYVCDAAQRYPERLRALGMVDALDQNIREQVRHWVGERGAVGIRLTEPFKGADPSWFASPEAMAAWETVSELGGSVRLHFYRWNREAALKALKPVLQRFPQTTVVLDHFSNIVGESGAPDHGVDATLLEMVEHSNVYLLYSMINLGKLAAAQMAAAPMVERVVREFGADRVMWGSDVAQSKGSYAQMVALAKESVSLLSETDQRKVLHDTAHAVYWGTR” the value was “not soluble”; for “KPNWCPGCGDFSVQAAIQRAAANVGLEPDQLAVISGIGCSGRISGYINAYGFHGVHGRVLPIAQGVKMANRDVTVIASGGDGDGFAIGMGHTVHAIRRNINITYIVMDNQIYGLTKGQTSPRSDVGFKTKSTPSGSVESALNVMEMALTAGATFVAQSFSSDLKELTALIEKGINHNGFSLINVFSPCVTFNKVNTYDWFKENLTKLSDLEGYDPQNRMVAMQTLMEHNGLVTGLIYQNDKQPSYQDLIAGYDEKPLADQDLTIDEGKFKELVGEF”, “not soluble”; for “MGSDKIHHHHHHMGRLFYKPENAWVGDLIPYYENGTYYGFYLHDPRIRDKEYAEDTTWHLIETKDFVNLDYKGESIARGGIHDANKNAYTGSVIKCEKDGLYHVFYTAYNEDFKLRGKTIQSVMQATGKNLENLETVKDFLFVSDGKQYEEFDWRDPFVFWNDEDQCYYMLLASRVTNRGDLRGGCIALCKSEDLINWTYEKPFYDPKMYITMECPELFKMGEYWYLVFSTFSDQFTTHYRISKNWNGPWEIPDDDVFDTRADYAIKTASDGKRRFAFGWIASKYGNTDFGPWEWGGTMNFHEIIQNSKNGELRIKAIPEVLDYFSKEIELKKETLYNCKMVQAQDGVSVESDTLGALLYPLEGDTFALDMVIKPERYHEFGIALHVDKELETGYFLRMNPKNQLVAWDMWPRGEQGRYQWQIKGDVPYQIETARKLPKAEEYRVHIIKEKDICVVYINDEIVLSTRMYNHKDGYAGIYVVQGDVKLIQYKEKRSE”, “not soluble”.
Take “MGSDKIHHHHHHMNQQPEQITALYCRLSRDDELQGDSNSIVNQKSILSKYAEEHRLLNTRFFIDDGVSGTTFDRPGLNEMLALIDEEKVSTVIVKDMSRLGRDYLKVGLLTEIQLPEKGVRFIAINDGVDSNQGVSEFIAFRNVINEWYAKDTSKKIKAVFTAKGQSGKPLSTFPPYGYIKDPEDKNRWIVDEAAAEVVREIFRLCMEGNGPTKIARILSERRVLIPSAYAKSNGRSAPADVPADRCKWCDSTVAHILERKEYLGHTVNFKTYKESFRNKKQRKNPKENQMVFENTHQPIIEQDVWDTVQQLR”: the “soluble on expression in E. coli” value is recorded as “not soluble”.
For “MLIPARMSEAEEQRWVTVMLDKLAAQESKRRLGDAELAERAERLSLQYFDGRARPTAVRWVTNQNTRWGSCTPSEGSIRLSHRLQGMPEYVVDYVLLHELAHLLVPGHGPRFWRLLEAYPRTERARGYLEGVVAADRLPHQPAPGAELEHHHHHH” the value was “not soluble”; for “SRDGSVAPKERINIRYVPATGDTQEDVELPLSMMVVGDFTARADETPIEERTPINIDKDNFNDVLEGMSPNVKVNVENRLSDEEGAQIGVDLTFQNMKDFSPEAIAKSVPELNSLLELREALVALKGPLGNVPAFRKKIASVLQDEEARKKLLDELSIG”, “not soluble”; for “MGSDKIHHHHHHLDNSTSTATIDPPLRLGLAMWSQNQWQQTVYGNSQAHRLARYAEIFNTVEGNTTFYATPSLQNVQNWYAATHDEFKFTFKLPKHITHELQLQHAGPALQQFFSIMEPLINRTGVWKIQLPASFGPQSLPQLAQFLTQVPQGLTYGVEVRNSAFFAKGEAEQALNRLLIDNNCNRIIMDTRPVFAAAPTTAAVIDAHQKKPKVPVHAIATAHNPVVRFIGHPQAEANIHFFQNWLKQLPLWIAQNKQPYLFIHTPDNHNAPQLAVDLYRLLQQQLAQSTSALTDINLLPQQQHTTTQMGFDL”, “not soluble”.
For “MGSDKIHHHHHHMLSRVAENLYWMARYLERTEDMARLINATTLLLLDLPQGAEFGWDILLQVTGDAKLYMEHYGTPEEGRIMRFLIADERNPNSVMAAIHQARENCRTFRDLLPAEFWERLNTLFLFVREHAGTSSDSRHARYAFLNEVISRRHALVGLLISSMSQDNVYQFIKLGRNMERADMTTRIVDVTSAVILPQDQGLQKTTTSSLWLGVLRALSAFEMYRRHVSVQVRSNQVVDYLLKDNKFPRSMKYCLGEMEVALAYLPNAGIPAEAVRRARRRLDALKLANLRPDLLHEYLDQAQKDLAMVHRTIHGTYFARDDTGFDGVPSGLLLNAAQA” the value was “not soluble”; for “MEESLKVGIAGLGTVGSSVVRILREKANSLTCQCGRSIKVVAVSARDKSRNRGIDLSDVKWFDSPVEMASSDEIDVFVELIGGESDVVYAAVKKALETGHHVVTANKALLAQHGGRLAVSAEKKGVFLHFEAAVAGGIPIIKVMRESLVSNHISRIYGILNGTCNYILTRMFTEGLSFKECLEDAQRLGYAEVDPTFDIGGNDTAHKLALLTSLAFGTAVSLDDIYVEGISNISQIDIRAADELGYRIKLLGVALKTETGIEQRVHPTMVPTSSMIAQIHGVTNALSIQSDLLGELLLSGPGAGGTATASAVIGDLADIAKARPGFQYAPVLGRPALGLAPHKKARISHHAGGYFIRLNVHDRAGVFAAVAKHMAGNHISLESIVQRSFVESQSVKTIILITHETTEVNVQQALAAIEKDGHLVAKSQFIRIEPMVLEHHHHHH”, “not soluble”; for “MGSDKIHHHHHHMSNANPSRLGMVNGTGADDALFLKVFGGEVLTTFAENNVFLPLTMSRTITSGKSAQFPVLGKNTAYYHVPGAELNGNNILNAERVITVDGLLVSPVFIAKIDEAKTHYDVRSQYTSECGASLSNQADRTISQVLINAARSTATITGGFGGTKLVDAAFGTDGDKLAAGIFGIAQTFDEKDVPETDRYAAVRPAQYYLMVAGTKVLNRDWGGSGSYMDGKVLKVAGVSIVKSNHIPKSVITGSAQAAYDGDFTKTVAVGFHKSAVGTVKLLDLQTEGEYQIQRQGTLIVAKYAMGHGVLRPEAAVELASA”, “not soluble”.
